Experimental data published in patent publication US8409833B2 (Hokko Chemical Industry Co., Ltd., priority 2003, dated 2013).
“Also recorded” adds a separate entry of the source.

B1: Xcc3438 gene: recombinant scyllo-inositol dehydrogenase, Xcc3438 gene product of Xanthomonas campestris pv. campestris ATCC33913, SEQ ID NO: 14 (protein)
chain: MPKPFNLAVVGYGYVGRTFHAPLIASTPGLQLHSVVSSKPQQPQADFREVRVLPDLEAALADPALDAVVIATPNQTHAPMALQALAAGKHVLVDKPFALDAAQARTVVDAAAEAGKIVSVFQNRRWDADFLTVRRLIEDGQLGEVVEFHSHFDRYRPQVRDRWRESDIPGAGLWYDLGPHLLDQALQLFGMPQAISADLQRQRTQARSDDYFNVVLRYPRLRVILHAGSLVADGSLRFAVHGTRGSYLKHGADTQEDQLRAGRRPGTAGWGMDPLPGTLTRVDDEGRVHTHQPDGVPGDYRHCYAAFRDAMAGTAPPPVSAADAVRLMELLELAQRGAALGQVLWLEGNSSD
modifications: Xanthomonas campestris pv. campestris
B2: AB10121 Atu4375 gene: recombinant scyllo-inositol dehydrogenase, Atu4375 gene product of Agrobacterium sp. AB10121 FERM P-17383, SEQ ID NO: 10 (protein, listed as Agrobacterium sp.)
chain: MSSAPKKFDSRRIRLGMVGGGQGAFIGAVHRIAARLDDRYELVAGALSSDPARAAASATLLGIAPERSYASFEEMAAAEAGRDDGIEAVAIVTPNHLHFAPSKAFLEAGIHVICDKPVTATLEEAKALAEIVRASDSLFVLTHNYTGYAMLRQMRQMVADGAIGKLRHVQAEYAQDWLTEAVEKTGAKGAEWRTDPSRSGAGGAIGDIGTHAFNAAAFVTGEIPKSLYADLTSFVPGRQLDDSANILLRYESGAKGMLWASQIAVGNENALSLRVYGEKGGLEWHHRVPDELWFTPYGEPKRLITRNGAGAGAAANRVSRVPSGHPEGYLEGFATIYREAADAIIAKREGKAAAGEVIYPGMEDGLAGLAFIDAAVRSSQTSTWINIDI
B3: AB10121 Atu3234 gene: recombinant scyllo-inositol dehydrogenase, Atu3234 gene product of Agrobacterium sp. AB10121 FERM P-17383, SEQ ID NO: 12 (protein, listed as Agrobacterium sp.)
chain: MAIEGKTTDKANKRIRLGMVGGGSGAFIGGVHRMAARLDNRFDLVAGALSSTPEKSLASGRELGLDPERCYGSFEEMAEKEALREDGIEAVAIVTPNHVHYPAAKAFLERGIHVICDKPLTSNLEDAKKLKDVADKADALFILTHNYTGYPMVRHARELVESGALGTIRLVQMEYPQDWLAEPIEQTGAKQAVWRTDPAQSGAGGSTGDIGTHAYNLGCFISGLEVDELAADVHTFVEGRRLDDNAHVMLRFKPKGGKQPAKGLLWCSQVAVGHENGLKVRVYGDKAGIEWTQADPNYLWFTKLGELKQLITRGGAGAGAAAARVTRIPSGHPEGYLEAFATIYTEAAHAIEARRTGSVLDKAVIYPTVDDGVKGVAFVTACIESGKKNGVWVKL
B4: SIDH1: scyllo-inositol dehydrogenase purified from Acetobacter sp. AB10281, DEAE-unadsorbed fraction, SEQ ID NO: 28 (protein, listed as Acetobacter sp.)
chain: MTKRKLRIGLIGSGFMGRTHAFGYSTASRVFDLPFQPELTCLADISDEAAAKAADALGFARSTSDWRTLVNDPEIDVVNITAPNAFHKEMALAAIAAGKHVYCEKPLAPLAADAREMAEAAEAKGVKTQVGFNYLCNPMLALARDMIAAGELGEIRGYRGLHAEDYMADASSPFTFRLDPAGGGALADIGSHALATAEFLMGPAAGAITQVMGDCVTVIKTRPDGKGGTRAVEVDDIGRALLRFENGATGSVEGNWIATGRTMQHDFEVYGTKGALAFTQQRFNELHFFSSTDARGRKGFRRIEAGPEHAPYGLFCVAPGHQLGFNDLKAIEVARYLEALAGHHPEPFNFRAGLRIQTLVETIHASSKSAAWRDVPTDKVKLQAKSRQHEKA

Assay: Enzyme reaction product of scyllo-inosose reduction measured by HPLC
Type: biochemical
Details: 10 mg scyllo-inosose, 40 mg NADPH, 10 U enzyme, 36° C., 4 hours; myo-inositol not detected
Protocol: Meanwhile, the enzyme reaction product was measured as follows: 10 mg of scyllo-inosose, 40 mg of NADPH, and 10 U of the enzyme were allowed to react in 1.0 ml of 100 mM Tris buffer (pH 8.0) at 36° C. for 4 hours, and a heat treatment was performed at 80° C. for 10 min, followed by cooling. Then, 100 μl of a strong base cation exchange resin, 100 μl of a strong acid anion exchange resin, and 10 mg of activated carbon were added, and the mixture was stirred and centrifuged. Then, the supernatant was diluted 2-fold, and measurement was performed by HPLC (Shodex Asahipak NH2P-50 4E Φ 4.6×250 mm: Shodex) using an RI detector under the condition of a column temperature of 40° C. and a mobile phase flow rate of 1.5 ml (80% acetonitrile). […] Meanwhile, the sequence of the ydgJ gene is shown in SEQ ID NO: 1, and the amino acid sequence corresponding thereto is shown in SEQ ID NO: 2.
Meanwhile, enzyme reaction product was measured as follows: 10 mg of scyllo-inosose, 40 mg of NADPH, and 10 U of the enzyme were allowed to react in 1.0 ml of 100 mM Tris buffer (pH 8.0) at 36° C. for 4 hours, and a heat treatment was performed at 80° C. for 10 min, followed by cooling. Then, 100 μl of a strong base cation exchange resin, 100 μl of a strong acid anion exchange resin, and 10 mg of activated carbon were added, and the mixture was stirred and centrifuged. Then, the supernatant was diluted 2-fold, and measurement was performed by HPLC (Shodex Asahipak NH2P-50 4E Φ 4.6×250 mm: Shodex) using an RI detector under conditions of a column temperature of 40° C. and a mobile phase flow rate of 1.5 ml (80% acetonitrile).

Molecule	share of scyllo-inositol in the product of scyllo-inosose reduction [%]
B1	100
B2	100
B3	100

Same assay, conditions: SIS: scyllo-inosose, SI: scyllo-inositol

Molecule	Reduction reaction product
B1	Only SIS → SI
B2	Only SIS → SI
B4	Only SIS → SI
B3	Only SIS → SI

Assay: Effects of heavy metal on scyllo-inositol dehydrogenase
Type: biochemical
Details: 2 mM heavy metal in reaction solution; no addition group = 100%
Protocol: Effects by the heavy metals can be confirmed by: mixing 5 μl of a reaction solution (200 mM Tris buffer of pH 8.0 containing 2% of NADPH, 1% of scyllo-inosose, and 2 mM metal salt) and 5 μl of an enzyme solution; allowing the mixture to react at 36° C. for 30 minutes; adding 500 μl of water immediately after the completion of the reaction; determining the absorbance at 340 nm; and determining a decrease in the absorbance at 340 nm with respect to a blank value of a test solution containing water instead of the enzyme solution. The term “activated” means the case where the enzymatic activity of a fraction added with 1 mM of a heavy metal is 105% or more, preferably 120% or more, with respect to the enzymatic activity of a fraction added with no heavy metal as 100%. On the other hand, the term “inhibited” means the case where the enzymatic activity of the fraction added with 1 mM of a heavy metal is 95% or less, preferably 70% or less, with respect to the enzymatic activity of the fraction added with no heavy metal as 100%.
The effects of heavy metal on the enzymes of the present invention were determined by: mixing 5 μl of a reaction solution (200 mM Tris buffer (pH 8.0), 2% of NADPH, 1% of scyllo-inosose, and 2 mM of a heavy metal) with 5 μl of an enzyme solution; and allowing the mixture to react at 36° C. for 30 min. After the reaction, 500 μl of water was immediately added thereto, and the absorbance at 340 nm was measured. From the blank value of a test solution prepared by using water instead of the enzyme solution, the decrease in the absorbance at 340 nm was measured. The enzyme solution was diluted as required. CaCl2, CoCl2, ZnSO4, MgSO4, SnCl2, NiCl2, and MnSO4 were used as metallic salts. The activity of the no addition group was defined as 100%, and the relative activities were compared. […] Most of the enzymes were inhibited in the presence of Zn^2+ ion, in contrast, the enzyme derived from Bacillus subtilis 168 was activated in the presence of Zn^2+ ion.

Molecule	Heavy metal effects: activation	Heavy metal effects: strong inhibition
B1	Co	Sn, Zn
B2	Co, Mn	Sn, Zn
B4	Co	Sn, Zn
B3	Co, Mn, Ca	Sn, Zn

Assay: Optimum pH of scyllo-inositol dehydrogenase
Type: biochemical
Details: 200 mM phosphate buffer (pH 5.0 to 9.0); 90% or more of the maximum activity
Protocol: The optimum pH can be confirmed by: mixing 5 μl of a reaction solution (200 mM […] of pH 5.0 to 9.0 containing 2% of NADPH, and 1% of scyllo-inosose) and 5 μl of an enzyme solution; allowing the mixture to react at 36° C. for 30 minutes; adding 500 μl of water immediately after the completion of the reaction; determining the absorbance at 340 nm; and determining a decrease in the absorbance at 340 nm with respect to a blank value of a test solution containing water instead of the enzyme solution. The term “optimum pH” means a pH at which the enzyme has 90% or more of the maximum activity. The enzyme of the present invention can be divided depending on, for example, a range of the optimum pH into groups each having: an optimum pH in an acidic region (optimum pH is pH of 5.5 to 6.5); an optimum pH in a neutral region (optimum pH is pH of 6.5 to 7.5 or 6.5 to 8.5); and an optimum pH in an alkaline region (optimum pH is pH of 7.0 to 8.5 or 7.5 to 9.0).
The optimum pH of the enzymes of the present invention was determined by: mixing 5 μl of a reaction solution (200 mM phosphate buffer (pH 5.0 to 9.0), 2% of NADPH, and 1% of scyllo-inosose) with 5 μl of an enzyme solution; and allowing the mixture to react at 36° C. for 30 min. After the reaction, 500 μl of water was immediately added thereto, and the absorbance at 340 nm was measured. From the blank value of a test solution prepared by using water instead of the enzyme solution, the decrease in the absorbance at 340 nm was measured. The enzyme solution was diluted as required.

Molecule	Optimum pH
B1	pH 6.5-7.5
B2	pH 6.5-8.5
B4	pH 5.5-6.5
B3	pH 7.0-8.5

Assay: Km values of scyllo-inositol dehydrogenase for scyllo-inosose (reciprocal plot)
Type: biochemical
Details: NADPH, pH 8.0, 36° C.
Protocol: The determination is carried out such that the Km value is calculated after reciprocal plot according to the general method.
After the reaction, […] of water was immediately added thereto, and the absorbance at 340 nm was measured. From the blank value of a test solution prepared by using water instead of the enzyme solution, the decrease in the absorbance at 340 nm was measured. The enzyme solution was diluted as required. The Km values were calculated by the reciprocal plot.

Molecule	Km [mM]
B1	9.1
B2	9.8
B4	7.6
B3	3.1

Assay: Substrate specificity of scyllo-inositol dehydrogenase (relative activity of oxidation, absorbance at 545 nm)
Type: biochemical
Details: relative to reactivity to scyllo-inositol, NADP^+, pH 8.0, 25° C.
Protocol: Examples of an inositol isomer include scyllo-inositol (SI), myo-inositol (MI), D-chiro-inositol (DCI), L-chiro-inositol (LCI), epi-inositol (EI), muco-inositol (MuI), allo-inositol (AI), and neo-inositol (NI).
The inositol isomers include scyllo-inositol (SI), myo-inositol (MI), D-chiro-inositol (DCI), L-chiro-inositol (LCI), epi-inositol (EI), muco-inositol (MuI), allo-inositol (AI), and neo-inositol (NI).
The reaction rate was calculated from the absorbance increments at the respective times.

Molecule	Substrate specific Relative activity (70% or more)	Substrate specific Relative activity (less than 20%)	Substrate specific Relative activity (20 to 70%)
B1	SI, DCI	EI, LCI, MuI,; also recorded: AI, NI	
B2	SI, MI, DCI, EI	AI, NI	LCI, MuI
B4		DCI, LCI, EI,; also recorded: MuI, AI, NI	
B3	SI, MI, DCI, EI, and LCI	AI, NI	MuI
